Test results: patent US20140303084A1 (Biogen, published 2014)
Residue numbers refer to the chain shown, from its start. Primed or numbered codes have the meaning given here. Side chains are listed from the residue outwards. Ends that are not written are not given here. * marks the point of attachment. Biotin = O=C1N[C@H]2[C@H](CS[C@H]2CCCCC(=O)*)N1; PEG2(3) = PEG2 spacer carrying biotin on Lys; PEG2″ = not defined here; PEG2(4) = PEG2 spacer

B1: TGLLQGRRDE RARPP KLTCLASYCWLFWTGIA (peptide)
peptide: TGLLQGRRDERARPPKLTCLASYCWLFWTGIA
B2: RRAPGKK(PEG2-Biotin)TCLASYCWLFWTGIA (peptide)
peptide: RRAPGKK([PEG2(3)-Biotin])TCLASYCWLFWTGIA
modifications: cysteine pairing not given here
B3: RRAPGKLTCLASYCWLF WTGYA SGKPSRVYVI (peptide)
peptide: RRAPGKLTCLASYCWLFWTGYASGKPSRVYVI
B4: RRAPGKLTCLASYCWK(PEG2-Biotin)FWTGIA (peptide)
peptide: RRAPGKLTCLASYCWK([PEG2(3)-Biotin])FWTGIA
modifications: not fully specified (C-terminus); printed as RRAPGKLTCLASYCWK(PEG2-Biotin)FWTGIA; cysteine pairing not given here
B5: TLWPWGGQGG RNAPG KLTCLASYCWLFWTGIA (peptide)
peptide: TLWPWGGQGGRNAPGKLTCLASYCWLFWTGIA
B6: compound B (peptide)
peptide: PLKWTASGCRWLGCIQLARFAY-NH2
modifications: cysteine pairing not given here
B7: QWQIAGQVLKRRAPA KLTCLASYCWLFWTGIA (peptide)
peptide: QWQIAGQVLKRRAPAKLTCLASYCWLFWTGIA
B8: RRAPGKLTCK(PEG2-Biotin)ASYCWLFWTGIA (peptide)
peptide: RRAPGKLTCK([PEG2(3)-Biotin])ASYCWLFWTGIA
modifications: cysteine pairing not given here
B9: RRAPGKLTCLASYCWLF WTGWA VLARVPVGWT (peptide)
peptide: RRAPGKLTCLASYCWLFWTGWAVLARVPVGWT
B10: RRAPGKLTCLASYCWLF EPGIA QPYAKSPTRN (peptide)
peptide: RRAPGKLTCLASYCWLFEPGIAQPYAKSPTRN
B11: RRAPGK(PEG2-Biotin)LTCLASYCWLFWTGIA (peptide)
peptide: RRAPGK([PEG2(3)-Biotin])LTCLASYCWLFWTGIA
modifications: not fully specified (bridges); printed as RRAPGK(PEG2-Biotin)LTCLASYCWLFWTGIA; cysteine pairing not given here
B12: compound A (peptide)
peptide: WSLCFKLTCAYL-NH2
modifications: cysteine pairing not given here
B13: RRAPGKLTCLASYCWLF WRGFA ERASEDTNQG (peptide)
peptide: RRAPGKLTCLASYCWLFWRGFAERASEDTNQG
B14: RRAK(PEG2-Biotin)GKLTCLASYCWLFWTGIA (peptide)
peptide: RRAK([PEG2(4)-Biotin])GKLTCLASYCWLFWTGIA
modifications: not fully specified (C-terminus); printed as RRAK(PEG2-Biotin)GKLTCLASYCWLFWTGIA; cysteine pairing not given here
B15: QRAGRVARLH RRAPN KLTCLASYCWLFWTGIA (peptide)
peptide: QRAGRVARLHRRAPNKLTCLASYCWLFWTGIA
B16: compound 3 (peptide)
peptide: RRAPGKLQCLASYCWLFWTGIA-NH2
modifications: not fully specified (bridges); cysteine pairing not given here
B17: WRAGLDESQR DRAPG KLTCLASYCWLFWTGIA (peptide)
peptide: WRAGLDESQRDRAPGKLTCLASYCWLFWTGIA
B18: RRAPGKLTCLK(PEG2-Biotin)SYCWLFWTGIA (peptide)
peptide: RRAPGKLTCLK([PEG2(3)-Biotin])SYCWLFWTGIA
modifications: cysteine pairing not given here
B19: GYRVPVGGLV RRAHG KLTCLASYCWLFWTGIA (peptide)
peptide: GYRVPVGGLVRRAHGKLTCLASYCWLFWTGIA
B20: VGSGDERALP SRASG KLTCLASYCWLFWTGIA (peptide)
peptide: VGSGDERALPSRASGKLTCLASYCWLFWTGIA
B21: RRAPGKLTCLASYCWLFWK(PEG2-Biotin)GIA (peptide)
peptide: RRAPGKLTCLASYCWLFWK([PEG2″-Biotin])GIA
modifications: not fully specified; printed as RRAPGKLTCLASYCWLFWK(PEG2-Biotin)GIA; cysteine pairing not given here
B22: RRAPGKLTCLASYCWLK(PEG2-Biotin)WTGIA (peptide)
peptide: RRAPGKLTCLASYCWLK([PEG2″-Biotin])WTGIA
modifications: not fully specified; printed as RRAPGKLTCLASYCWLK(PEG2-Biotin)WTGIA; cysteine pairing not given here
B23: AVDSLPLYGA RSAPS KLTCLASYCWLFWTGIA (peptide)
peptide: AVDSLPLYGARSAPSKLTCLASYCWLFWTGIA
modifications: not fully specified; cysteine pairing not given here
B24: LQLSYGEQRQ SRAPG KLTCLASYCWLFWTGIA (peptide)
peptide: LQLSYGEQRQSRAPGKLTCLASYCWLFWTGIA
B25: TQWAQVGPRG RRAQG KLTCLASYCWLFWTGIA (peptide)
peptide: TQWAQVGPRGRRAQGKLTCLASYCWLFWTGIA
B26: RRAPGKLTCLASK(PEG2-Biotin)CWLFWTGIA (peptide)
peptide: RRAPGKLTCLASK([PEG2″-Biotin])CWLFWTGIA
modifications: not fully specified; printed as RRAPGKLTCLASK(PEG2-Biotin)CWLFWTGIA; cysteine pairing not given here
B27: TSGPFGFGGS SRAQG KLTCLASYCWLFWTGIA (peptide)
peptide: TSGPFGFGGSSRAQGKLTCLASYCWLFWTGIA
B28: RRAPGKLTCLASYCK(PEG2-Biotin)LFWTGIA (peptide)
peptide: RRAPGKLTCLASYCK([PEG2(3)-Biotin])LFWTGIA
modifications: not fully specified (C-terminus); printed as RRAPGKLTCLASYCK(PEG2-Biotin)LFWTGIA; cysteine pairing not given here
B29: RRAPGKLTCLASYCWLFWTGK(PEG2-Biotin)A (peptide)
peptide: RRAPGKLTCLASYCWLFWTGK([PEG2(3)-Biotin])A
modifications: not fully specified (C-terminus); printed as RRAPGKLTCLASYCWLFWTGK(PEG2-Biotin)A; cysteine pairing not given here
B30: HLFGADWLGA RTAPG KLTCLASYCWLFWTGIA (peptide)
peptide: HLFGADWLGARTAPGKLTCLASYCWLFWTGIA
B31: RRAPGKLTCLASYCWLF WTGLS RYQWQAQEDV (peptide)
peptide: RRAPGKLTCLASYCWLFWTGLSRYQWQAQEDV
B32: RRAPGKLTCLASYCWLF STPVA RKSLRRHQPT (peptide)
peptide: RRAPGKLTCLASYCWLFSTPVARKSLRRHQPT
modifications: not fully specified (C-terminus); cysteine pairing not given here
B33: RRAPGKLTCLASYCWLFWTGIK(PEG2-Biotin) (peptide)
peptide: RRAPGKLTCLASYCWLFWTGIK([PEG2(3)-Biotin])
modifications: not fully specified (C-terminus); printed as RRAPGKLTCLASYCWLFWTGIK(PEG2-Biotin); cysteine pairing not given here
B34: RRAPGKLTCLASYCWLF WTGLA STLYKTYTRE (peptide)
peptide: RRAPGKLTCLASYCWLFWTGLASTLYKTYTRE
B35: RRAPGKLTCLASYCWLFWTGIA-PEG4 (peptide)
peptide: RRAPGKLTCLASYCWLFWTGIA
modifications: not fully specified; C-terminal PEG4
B36: PSGWAGWAPG RREPG KLTCLASYCWLFWTGIA (peptide)
peptide: PSGWAGWAPGRREPGKLTCLASYCWLFWTGIA
B37: RRAPGKLTCLASYCWLF QTGWA YWGYRQHPGS (peptide)
peptide: RRAPGKLTCLASYCWLFQTGWAYWGYRQHPGS
B38: SRIRTVGPGSRSASGKLTCLASYCWLFWTGIA (peptide)
peptide: SRIRTVGPGSRSASGKLTCLASYCWLFWTGIA
B39: PRSRTVGPGSRSASGKLTCLASYCWLFWTGIA (peptide)
peptide: B38 peptide with S1P, I3S
B40: PRIRSVGPGSRSASGKLTCLASYCWLFWTGIA (peptide)
peptide: B38 peptide with S1P, T5S
B41: PRISTVGPGSRSASGKLTCLASYCWLFWTGIA (peptide)
peptide: B38 peptide with S1P, R4S
B42: PSIRTVGPGSRSASGKLTCLASYCWLFWTGIA (peptide)
peptide: B38 peptide with S1P, R2S
modifications: not fully specified; cysteine pairing not given here
B43: PRIRTSGPGSRSASGKLTCLASYCWLFWTGIA (peptide)
peptide: B38 peptide with S1P, V6S
B44: RRAPGKLTCLASYCWLF WTGWC RDTASHACDS (peptide)
peptide: RRAPGKLTCLASYCWLFWTGWCRDTASHACDS
B45: RRAPGKLTCLASYCWLF WTGFA FRVGLASSLY (peptide)
peptide: RRAPGKLTCLASYCWLFWTGFAFRVGLASSLY
B46: RRAPGKLTCLASYCWLF STGVA THANTTATAQ (peptide)
peptide: RRAPGKLTCLASYCWLFSTGVATHANTTATAQ

Target: human Factor IXa (human, UniProt P00740 47-191; P00740 227-461)
Experiment: cell-based or functional assay

Binder | EC50 [µM], FXa generation assay | EC50 [µM], FXa generation assay with hFIXa
B1 | < 0.5 µM | 
B2 | > 5 µM | 
B3 | > 1 µM | 
B4 | > 1 µM | 
B5 | > 1 µM | 
B6 |  | > 1 µM
B7 | < 0.5 µM | 
B8 | < 0.5 µM | 
B9 | < 0.5 µM | 
B10 | > 1 µM | 
B11 | < 0.5 µM | 
B12 |  | > 100 µM
B13 | > 1 µM | 
B14 | > 1 µM | 
B15 | > 1 µM | 
B16 |  | < 0.5 µM
B17 | < 0.5 µM | 
B18 | < 0.5 µM | 
B19 | > 1 µM | 
B20 | < 0.5 µM | 
B21 | < 0.5 µM | 
B22 | > 1 µM | 
B23 | < 0.5 µM | 

Binder | EC50 [µM], FXa generation assay | EC50 [µM], FXa generation assay with hFIXa
B24 | < 0.5 µM | 
B25 | < 0.5 µM | 
B26 | < 0.5 µM | 
B27 | > 1 µM | 
B28 | < 0.5 µM | 
B29 | < 0.5 µM | 
B30 | > 1 µM | 
B31 | > 1 µM | 
B32 | > 10 µM | 
B33 | < 0.5 µM | 
B34 | > 1 µM | 
B35 | < 0.5 µM | 
B36 | > 1 µM | 
B37 | < 0.5 µM | 
B38 | < 0.5 µM | 
B39 | < 0.5 µM | 
B40 | < 0.5 µM | 
B41 | < 0.5 µM | 
B42 | < 0.5 µM | 
B43 | < 0.5 µM | 
B44 | > 1 µM | 
B45 | < 0.5 µM | 
B46 | > 1 µM | 
